Experimental data published in the supplement of paper PMC7877785.
± gives the uncertainty stated by the source.

Test: self-splicing fitness, log relative to wild type (ln ratio); higher = more splicing; Tetrahymena group I intron in knt gene, E. coli kanamycin selection, DiMSum; sequences stand for … in CUCUCU…GGAGGGAAAAGUUAUCAGGCAUGCACCUGGUAGCUAGUCUUUAAACCAAUAGAUUGCAUCGGUUUAAAAGGCAAGACCGUCAAAUUGCGGGAAAGGGGUCAACAGCCGUUCAGUACCAAGUCUCAGGGGAAACUUUGAGAUGGCCUUGCAAAGGGUAUGGUAAUAAGCUGACGGACAUGGUCCUAACCACGCAGCCAAGUCCUAAGUCAACAGAUCUUCUGUUGAUAUGGAUGCAGUUCACAGACUAAAUGUCGGUCGGGGAAGAUGUAUUCUUCUCAUAAGAUAUAGUCGGACCUCUCCUUAAUGGGAGCUAGCGGAUGAAGUGAUGCAACACUGGAGCCGCUGGGAACUAAUUUGUAUGCGAAAGUAUAUUGAUUAGUUUUGGAGUACUCGUGGUCG
In short: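 Library with all eight P1ex-region intron nucleotides randomised, intron inside the knt kanamycin-resistance gene on pET-22b(+), in E. coli BL21(DE3). Cells grew overnight at 37°C or 30°C on LB agar with or without 25 μg/mL kanamycin (plus 100 μg/mL carbenicillin, 50 μM IPTG, 0.2% rhamnose), in six replicate transformations. Pooled colonies were amplicon-sequenced on Illumina HiSeq 2500. DiMSum fitness is the error-weighted combination of wild-type-normalised replicate fold changes, kanamycin versus none.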

| Sequence | self-splicing fitness (ln) (30 °C) | self-splicing fitness (ln) (37 °C) |
| --- | --- | --- |
| AAGCAGCAAUAUUACGUUUA | -1.53 ± 0.084 | -0.691 ± 0.074 |
| AAGGAGCAAUAUUACGAGAU | – | -2.41 ± 0.24 |
| AAGGAGCAAUAUUACGCCGA | -2.33 ± 0.18 | -0.979 ± 0.26 |
| AAGGAGCAAUAUUACGCGCG | -2.19 ± 0.24 | -0.975 ± 0.23 |
| AAGGAGCAAUAUUACGCUAG | -2.17 ± 0.2 | – |
| AAGGAGCAAUAUUACGCUCA | – | -0.14 ± 0.37 |
| AAGGAGCAAUAUUACGGACG | – | -0.216 ± 0.26 |
| AAGGAGCAAUAUUACGGAUU | -2.19 ± 0.11 | -1.69 ± 0.095 |
| AAGGAGCAAUAUUACGGCCG | -1.99 ± 0.45 | – |
| AAGGAGCAAUAUUACGGCUA | -1.92 ± 0.12 | -0.126 ± 0.13 |
| AAGGAGCAAUAUUACGGGCU | -2.94 ± 0.24 | -2.53 ± 0.28 |
| AAGGAGCAAUAUUACGGGGA | -3.91 ± 0.29 | -2.25 ± 0.25 |
| AAGGAGCAAUAUUACGUGAA | -2.22 ± 0.34 | – |
| AAGGAGCAAUAUUACGUGCG | -2.36 ± 0.19 | -2.09 ± 0.23 |
| AAGGAGCAAUAUUACGUUGC | -4.58 ± 0.42 | -1.71 ± 0.23 |
| AAGGAGCAAUAUUACGUUGU | -2.61 ± 0.15 | -2.53 ± 0.21 |
| AAGUAGCAAUAUUACGAACA | -1.1 ± 0.13 | -0.811 ± 0.18 |
| AAGUAGCAAUAUUACGACAA | -0.505 ± 0.073 | 0.0804 ± 0.084 |
| AAGUAGCAAUAUUACGACAU | 0.0523 ± 0.012 | -0.0429 ± 0.033 |
| AAGUAGCAAUAUUACGACCA | -1.55 ± 0.16 | 0.396 ± 0.21 |
| AAGUAGCAAUAUUACGACUA | -0.0153 ± 0.098 | 0.0263 ± 0.13 |

| Sequence | self-splicing fitness (ln) (30 °C) | self-splicing fitness (ln) (37 °C) |
| --- | --- | --- |
| AAGUAGCAAUAUUACGAGGG | -3.71 ± 0.24 | -3.29 ± 0.28 |
| AAGUAGCAAUAUUACGAGUU | -1.86 ± 0.098 | -0.204 ± 0.096 |
| AAGUAGCAAUAUUACGAUCC | -0.772 ± 0.19 | -0.304 ± 0.29 |
| AAGUAGCAAUAUUACGAUGA | -0.567 ± 0.14 | -0.511 ± 0.15 |
| AAGUAGCAAUAUUACGCAAU | -2.09 ± 0.14 | -1.46 ± 0.17 |
| AAGUAGCAAUAUUACGCGCU | -1.47 ± 0.11 | -0.822 ± 0.12 |
| AAGUAGCAAUAUUACGCGUA | -2.15 ± 0.13 | -1.29 ± 0.14 |
| AAGUAGCAAUAUUACGCUCA | -0.287 ± 0.076 | 0.5 ± 0.094 |
| AAGUAGCAAUAUUACGGACU | -0.577 ± 0.11 | -0.212 ± 0.15 |
| AAGUAGCAAUAUUACGGAUG | -3.53 ± 0.39 | -1.76 ± 0.17 |
| AAGUAGCAAUAUUACGGGAG | -4.01 ± 0.27 | -2.82 ± 0.23 |
| AAGUAGCAAUAUUACGGGUA | -1.49 ± 0.16 | -1.09 ± 0.17 |
| AAGUAGCAAUAUUACGGUAC | -2.65 ± 0.18 | -1.75 ± 0.18 |
| AAGUAGCAAUAUUACGGUCU | -0.291 ± 0.062 | -0.0526 ± 0.086 |
| AAGUAGCAAUAUUACGUACA | -0.476 ± 0.11 | -0.759 ± 0.14 |
| AAGUAGCAAUAUUACGUAGG | -4.35 ± 0.28 | -1.75 ± 0.18 |
| AAGUAGCAAUAUUACGUAUG | -3.38 ± 0.22 | -1.4 ± 0.19 |
| AAGUAGCAAUAUUACGUCGU | -0.969 ± 0.093 | -0.724 ± 0.11 |
| AAGUAGCAAUAUUACGUGAC | -2.41 ± 0.19 | -1.85 ± 0.4 |
| AAGUAGCAAUAUUACGUGAU | -2.24 ± 0.098 | -1.77 ± 0.12 |
